Patent publication US20100260668A1 (published 2010)

The binders below were run against T1, DLL4 (DLL ECD His tag, R&D 1506-D4-050) (UniProt Q9NR61 27-529) (assay: BIACORE (SPR), DVD-Ig against DLL4).
T1 construct: extracellular domain; bought

Binder	Kd	koff	kon
DVD488 (bispecific antibody, human IgG1, kappa, DVD-Ig; N-term; VD VEGF (AB014), C-term; VD DLL4 (AB072); HC linker short, LC linker short; also called DVD-Ig DVD488; DVD488H) heavy: not shown light: DIQMTQSPSSLSASVGDRVTITCSASQDISNYLNWYQQKPGKAPKVLIYFTSSLHSGVPSRFSGSGSGTDFTLTISSLQPEDFATYYCQQYSTVPWTFGQGTKVEIKRTVAAPDIQMTQSSSYLSVSLGGRVTITCKASDHINNWLAWYQQKPGNAPRLLISGATSLETGVPSRFSGSGSGKDYTLSITSLQTEDVATYYCQQYWSIPLTFGAGTKLELKRTVAAPSVFIFPPSDEQLKSGTASVVCLLNNFYPREAKVQWKVDNALQSGNSQESVTEQDSKDSTYSLSSTLTLSKADYEKHKVYACEVTHQGLSSPVTKSFNRGEC	0.418 nM	6.62e-05 s⁻¹	159000 M⁻¹ s⁻¹
DVD473 (bispecific antibody, human IgG1, kappa, DVD-Ig; N-term; VD DLL4 (AB015), C-term; VD VEGF (AB071); HC linker long, LC linker long; also called DVD-Ig DVD473; DVD473H) heavy: not shown light: DIQMTQSPSSLSASVGDRVTITCRASQDVSTAVAWYQQKPGKAPKLLIYSASFLYSGVPSRFSGSGSGTDFTLTISSLQPEDFATTYYCQQSYTGTVTFGQGTKVEIKRTVAAPSVFIFPPDIQMTQSPSSLSASVGDRVTITCRASQVIRRSLAWYQQKPGKAPKLLIYAASNLASGVPSRFSGSGSGTDFTLTISSLQPEDFATYYCQQSNTSPLTFGQGTKVEIKRTVAAPSVFIFPPSDEQLKSGTASVVCLLNNFYPREAKVQWKVDNALQSGNSQESVTEQDSKDSTYSLSSTLTLSKADYEKHKVYACEVTHQGLSSPVTKSFNRGEC	0.716 nM	0.000161 s⁻¹	226000 M⁻¹ s⁻¹
DVD476 (bispecific antibody, human IgG1, kappa, DVD-Ig; N-term; VD VEGF (AB014), C-term; VD DLL4 (AB015); HC linker long, LC linker short; also called DVD-Ig DVD476; DVD476H) heavy: not shown light: DIQMTQSPSSLSASVGDRVTITCSASQDISNYLNWYQQKPGKAPKVLIYFTSSLHSGVPSRFSGSGSGTDFTLTISSLQPEDFATYYCQQYSTVPWTFGQGTKVEIKRTVAAPDIQMTQSPSSLSASVGDRVTITCRASQDVSTAVAWYQQKPGKAPKLLIYSASFLYSGVPSRFSGSGSGTDFTLTISSLQPEDFATTYYCQQSYTGTVTFGQGTKVEIKRTVAAPSVFIFPPSDEQLKSGTASVVCLLNNFYPREAKVQWKVDNALQSGNSQESVTEQDSKDSTYSLSSTLTLSKADYEKHKVYACEVTHQGLSSPVTKSFNRGEC	2.96 nM	0.000167 s⁻¹	56300 M⁻¹ s⁻¹
DVD467 (bispecific antibody, human IgG1, kappa, DVD-Ig; N-term; VD DLL4 (AB015), C-term; VD VEGF (AB071); HC linker short, LC linker short; 2'; 3'; also called DVD-Ig DVD467; DVD467H) heavy: not shown light: DIQMTQSPSSLSASVGDRVTITCRASQDVSTAVAWYQQKPGKAPKLLIYSASFLYSGVPSRFSGSGSGTDFTLTISSLQPEDFATTYYCQQSYTGTVTFGQGTKVEIKRTVAAPDIQMTQSPSSLSASVGDRVTITCRASQVIRRSLAWYQQKPGKAPKLLIYAASNLASGVPSRFSGSGSGTDFTLTISSLQPEDFATYYCQQSNTSPLTFGQGTKVEIKRTVAAPSVFIFPPSDEQLKSGTASVVCLLNNFYPREAKVQWKVDNALQSGNSQESVTEQDSKDSTYSLSSTLTLSKADYEKHKVYACEVTHQGLSSPVTKSFNRGEC	0.302 nM	0.000177 s⁻¹	585000 M⁻¹ s⁻¹
DVD494 (bispecific antibody, human IgG1, kappa, DVD-Ig; N-term; VD VEGF (AB014), C-term; VD DLL4 (AB072); HC linker long, LC linker long; also called DVD-Ig DVD494; DVD494H) heavy: not shown light: DIQMTQSPSSLSASVGDRVTITCSASQDISNYLNWYQQKPGKAPKVLIYFTSSLHSGVPSRFSGSGSGTDFTLTISSLQPEDFATYYCQQYSTVPWTFGQGTKVEIKRTVAAPSVFIFPPDIQMTQSSSYLSVSLGGRVTITCKASDHINNWLAWYQQKPGNAPRLLISGATSLETGVPSRFSGSGSGKDYTLSITSLQTEDVATYYCQQYWSIPLTFGAGTKLELKRTVAAPSVFIFPPSDEQLKSGTASVVCLLNNFYPREAKVQWKVDNALQSGNSQESVTEQDSKDSTYSLSSTLTLSKADYEKHKVYACEVTHQGLSSPVTKSFNRGEC	1.39 nM	0.000183 s⁻¹	132000 M⁻¹ s⁻¹
DVD506 (bispecific antibody, human IgG1, kappa, DVD-Ig; N-term; VD VEGF (AB014), C-term; VD DLL4 (AB072); HC linker short, LC linker long; also called DVD-Ig DVD506; DVD506H) heavy: not shown light: DIQMTQSPSSLSASVGDRVTITCSASQDISNYLNWYQQKPGKAPKVLIYFTSSLHSGVPSRFSGSGSGTDFTLTISSLQPEDFATYYCQQYSTVPWTFGQGTKVEIKRTVAAPSVFIFPPDIQMTQSSSYLSVSLGGRVTITCKASDHINNWLAWYQQKPGNAPRLLISGATSLETGVPSRFSGSGSGKDYTLSITSLQTEDVATYYCQQYWSIPLTFGAGTKLELKRTVAAPSVFIFPPSDEQLKSGTASVVCLLNNFYPREAKVQWKVDNALQSGNSQESVTEQDSKDSTYSLSSTLTLSKADYEKHKVYACEVTHQGLSSPVTKSFNRGEC	1.47 nM	0.000104 s⁻¹	70700 M⁻¹ s⁻¹
DVD482 (bispecific antibody, human IgG1, kappa, DVD-Ig; N-term; VD VEGF (AB014), C-term; VD DLL4 (AB015); HC linker short, LC linker long; also called DVD-Ig DVD482; DVD482H) heavy: not shown light: DIQMTQSPSSLSASVGDRVTITCSASQDISNYLNWYQQKPGKAPKVLIYFTSSLHSGVPSRFSGSGSGTDFTLTISSLQPEDFATYYCQQYSTVPWTFGQGTKVEIKRTVAAPSVFIFPPDIQMTQSPSSLSASVGDRVTITCRASQDVSTAVAWYQQKPGKAPKLLIYSASFLYSGVPSRFSGSGSGTDFTLTISSLQPEDFATTYYCQQSYTGTVTFGQGTKVEIKRTVAAPSVFIFPPSDEQLKSGTASVVCLLNNFYPREAKVQWKVDNALQSGNSQESVTEQDSKDSTYSLSSTLTLSKADYEKHKVYACEVTHQGLSSPVTKSFNRGEC	2.08 nM	0.000232 s⁻¹	111000 M⁻¹ s⁻¹

More lines, now with the values ahead:

Kd	koff	kon	Binder
2.94 nM	0.000757 s⁻¹	258000 M⁻¹ s⁻¹	DVD512 (bispecific antibody, human IgG1, lambda, L234A L235A, DVD-Ig; N-term; VD VEGF (AB014), C-term; VD DLL4 (AB073); HC linker short, LC linker short; also called DVD-Ig DVD512; DVD512H) heavy: not shown light: DIQMTQSPSSLSASVGDRVTITCSASQDISNYLNWYQQKPGKAPKVLIYFTSSLHSGVPSRFSGSGSGTDFTLTISSLQPEDFATYYCQQYSTVPWTFGQGTKVEIKRTVAAPQAVVTQESALTTSPGETVTLTCRSSTGAVTTSNYANWVQEKPDHLFTGLIGGTNNRAPGVPARFSGSLIGDKAALTITGAQTEDEAIYFCALWYSNHWVFGGGTKLTVLGQPKAAPSVTLFPPSSEELQANKATLVCLISDFYPGAVTVAWKADSSPVKAGVETTTPSKQSNNKYAASSYLSLTPEQWKSHRSYSCQVTHEGSTVEKTVAPTECS
9.45 nM	0.000877 s⁻¹	92800 M⁻¹ s⁻¹	DVD524 (bispecific antibody, human IgG1, lambda, DVD-Ig; N-term; VD VEGF (AB014), C-term; VD DLL4 (AB073); HC linker long, LC linker short; also called DVD-Ig DVD524; DVD524H) heavy: not shown light: DIQMTQSPSSLSASVGDRVTITCSASQDISNYLNWYQQKPGKAPKVLIYFTSSLHSGVPSRFSGSGSGTDFTLTISSLQPEDFATYYCQQYSTVPWTFGQGTKVEIKRTVAAPQAVVTQESALTTSPGETVTLTCRSSTGAVTTSNYANWVQEKPDHLFTGLIGGTNNRAPGVPARFSGSLIGDKAALTITGAQTEDEAIYFCALWYSNHWVFGGGTKLTVLGQPKAAPSVTLFPPSSEELQANKATLVCLISDFYPGAVTVAWKADSSPVKAGVETTTPSKQSNNKYAASSYLSLTPEQWKSHRSYSCQVTHEGSTVEKTVAPTECS
3.72 nM	0.000454 s⁻¹	122000 M⁻¹ s⁻¹	DVD518 (bispecific antibody, human IgG1, kappa, lambda, DVD-Ig; N-term; VD VEGF (AB014), C-term; VD DLL4 (AB073); HC linker long, LC linker long; also called DVD-Ig DVD518; DVD518H) heavy: not shown light: DIQMTQSPSSLSASVGDRVTITCSASQDISNYLNWYQQKPGKAPKVLIYFTSSLHSGVPSRFSGSGSGTDFTLTISSLQPEDFATYYCQQYSTVPWTFGQGTKVEIKRTVAAPSVFIFPPQAVVTQESALTTSPGETVTLTCRSSTGAVTTSNYANWVQEKPDHLFTGLIGGTNNRAPGVPARFSGSLIGDKAALTITGAQTEDEAIYFCALWYSNHWVFGGGTKLTVLGQPKAAPSVTLFPPSSEELQANKATLVCLISDFYPGAVTVAWKADSSPVKAGVETTTPSKQSNNKYAASSYLSLTPEQWKSHRSYSCQVTHEGSTVEKTVAPTECS
5.38 nM	0.00219 s⁻¹	407000 M⁻¹ s⁻¹	DVD530 (bispecific antibody, human IgG1, kappa, lambda, L234A L235A, DVD-Ig; N-term; VD VEGF (AB014), C-term; VD DLL4 (AB073); HC linker short, LC linker long; also called DVD-Ig DVD530; DVD530H) heavy: not shown light: DIQMTQSPSSLSASVGDRVTITCSASQDISNYLNWYQQKPGKAPKVLIYFTSSLHSGVPSRFSGSGSGTDFTLTISSLQPEDFATYYCQQYSTVPWTFGQGTKVEIKRTVAAPSVFIFPPQAVVTQESALTTSPGETVTLTCRSSTGAVTTSNYANWVQEKPDHLFTGLIGGTNNRAPGVPARFSGSLIGDKAALTITGAQTEDEAIYFCALWYSNHWVFGGGTKLTVLGQPKAAPSVTLFPPSSEELQANKATLVCLISDFYPGAVTVAWKADSSPVKAGVETTTPSKQSNNKYAASSYLSLTPEQWKSHRSYSCQVTHEGSTVEKTVAPTECS
